The supplement of paper PMC9170038

Experiments:
MS2 coat protein [1] = assay: apparent KD of MS2 coat protein; designed switch direction (-1 OFF switch, 1 ON switch): 1; higher = weaker reporter binding; conditions: Eterna round: R98
Description: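 RNA-MaP: designed FMN/MS2 RNA switches (84 nt design region) are transcribed on-chip within common flanks and titrated with SNAP-549-labelled MS2 coat protein (about 1-3000 nM) in 100 mM Tris pH 7.5, 80 mM KCl, 4 mM MgCl2, without or with 200 uM FMN. Median apparent KD per design; activation ratio = KD,OFF / KD,ON.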

MS2 coat protein [2] = assay: apparent KD of MS2 coat protein, switch OFF state (with FMN for OFF switches, without FMN for ON switches); designed switch direction (-1 OFF switch, 1 ON switch): 1; higher = weaker reporter binding; conditions: FMN input: 0 or 200 uM; Eterna round: R93 (includes R88 designs)
In short: (§1)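 Designed RNA switches were transcribed on-chip from Illumina sequencing clusters and titrated with SNAP-549-labelled MS2 coat protein in twofold steps from 0.7 or 1.5 nM up to 3 µM. Each step lasted 0.8–1.5 h at first and 10–20 min by the end, in 100 mM Tris-HCl pH 7.5, 80 mM KCl and 4 mM MgCl2, without or with constant ligand. Apparent KD is the median, for each design, of fits to normalised cluster binding curves.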

MS2 coat protein [3] = assay: apparent KD of MS2 coat protein, switch ON state; designed switch direction (-1 OFF switch, 1 ON switch): 1; higher = weaker reporter binding; conditions: FMN input: 0 or 200 uM; Eterna round: R93 (includes R88 designs)
In short: as §1

| Sequence | apparent KD of MS2 coat protein (MS2 coat protein [1]; input ligand: FMN 200 uM) | apparent KD of MS2 coat protein (MS2 coat protein [1]; input ligand: none) | apparent KD of MS2 coat protein (MS2 coat protein [2]) | apparent KD of MS2 coat protein (MS2 coat protein [3]) |
| --- | --- | --- | --- | --- |
| GCACUCAAGUUAGGAUAUGGAUCGGAAAACGAUCCAGAAGGAACAUGAAAACAUGAGCAUCAGCCAUGUUCCAGAAACGAGUGC [SameSame 13 - Jieux - Same State NG 1] | 0.0228 µM | 0.0699 µM | – | – |
| UUUGGGAGCACAGGAUAUGGCACCUCGACCGUGCCAGAAGGGUGAUUCUGUUGGUGGCCACAUGAGGAUCACCCAUGUGCCUCC [Araterin] | 0.0215 µM | 0.275 µM | – | – |
| AAAACAUGAGGAUCACCCAUGUAAAGAUCGGUUAUUAAAAGUGAGGAUAUACAAAAUUUUAUAUAGUAGAAGGCACUGGGUACA [JR_SSNG3_Sub001] | 0.0289 µM | 0.0278 µM | – | – |
| AAGUCACAUGAGGAUCACCCAUGUCGUAAACGAUGAGGAUAUAGGAAGAAAAAAAAAAAACUAGAAGGUAUUACAA [SameState1-02] | – | – | 0.0286 µM | 0.0325 µM |
| AACAAUCUAUCUGAGGAUAUGUGUCGAAAGACAUGAGGAUCACCCAUGUAAAAACAUGGAAAAUCACAGAAGGCAGAUAGAUUGA [SS2: 1145] | – | – | 1.79 µM | 0.127 µM |
| GGCAGUCCGACACAGGAUAUGGGUAACGAAACAUGAGGAUCACCCAUGUGGAAACAUCGGGUUGCCUAGAAGGGUGGAAAGAUUG [Xeti] | – | – | 0.259 µM | 0.0264 µM |
| AUGAAUAGAAUCGAGGAUAUCCAGUCAUGAACAUGAGGAUCACCCAUGUAAGAGAGAGUAUAAUGGGAGAAGGCGAGUAAUAGAU [JR_SS002_Sub1702] | – | – | 0.0845 µM | 0.027 µM |
| AUAUAUAAAAGGUAGGAUAUUCUAAAAUAAACAUGAGGAUCACCCAUGUAAAGAAAGAAACUCAUGGAGAAGGACCAUAUAUAUA [ss2 5th modifying Eli's mod of Tesla] | – | – | 0.156 µM | 0.0456 µM |
| AAAACACAUGAGGAUCACCCAUGUAGAAAUACGGGAGGAUAUGCAAAAACGAAAGACAAAGUAGAAGGCCUAAAAG [saturn 9] | – | – | 0.067 µM | 0.0262 µM |
| AAUAGACAUGAGGAUCACCCAUGUAGAAUUAUGGGAGGAUAUACAAAGACGAGAGUCAGAGUAGAAGGCCUAGGAG [salish99-ss1-150] | – | – | 0.0483 µM | 0.0221 µM |
| AGGAAACAUGAGGAUCACCCAUGUAAAAAAUAUGGAGGAUAUGCUAGAAGAAACAAAAUAGCAGAAGGCCAAAAAA [75%, Ex sub1, 23] | – | – | 0.0247 µM | 0.0137 µM |
| AAAAGACAUGAGGAUCACCCAUGUAAAGACGUGGGAGGAUAUGUAUGGAAACCAGACUGUACAGAAGGCCUCUGUC [SS1 - 72] | – | – | 0.243 µM | 0.165 µM |
| AAGGCACAUGAGGAUCACCCAUGUUAGCCGCGACGAGGAUAUGGGAACGCGUCAGCGGAAUUAGAAGGUGUGGUGA [Qusoquan] | – | – | 0.0378 µM | 0.0356 µM |
| AGAAAACAUGAGGAUCACCCAUGUGACAAUAUGGGAGGAUAUACCAAGACGAAAGUCGAAGUAGAAGGCCUAAAGA [Garnet 51] | – | – | 0.0698 µM | 0.0229 µM |
| AUAAAUAAAAGCAAGGAUAUCCAAAAGAAAACAUGAGGAUCACCCAUGUAAAAGAAAAUAAAAUGGGAGAAGGUGCAAAAUAAAU [viburnum 8] | – | – | 0.0275 µM | 0.0148 µM |
| GAAAAACAUGAGGAUCACCCAUGUAGAAAUAUGGUAGGAUAUACAAAGACGAAAGUCAAAGUAGAAGGGCCAAAAG [Starry Same State 1.4 (mat747 round 1 mod)] | – | – | 0.019 µM | 0.013 µM |
| AAAACACAUGAGGAUCACCCAUGUAAAAACUUGGGAGGAUAUGCUUGGAAAACAUGCUAUGCAGAAGGCUCUAGUG [SS1 - 13] | – | – | 0.123 µM | 0.0499 µM |
| ACUAGGAAGAGAGAGGAUAUCCAAAGGAAAACAUGAGGAUCACCCAUGUAAAAGGUAGGAAAUUGGGAGAAGGCUCAAGAGAGAG [salish99-ss2-085] | – | – | 0.0244 µM | 0.0229 µM |
| CGAAGACAUGAGGAUCACCCAUGUGGGAUUAUGGGAGGAUAUACAAAGACGAGAGUCAGAGUAGAAGGCCUAGGAA [salish99-ss1-124(!)] | – | – | 0.0385 µM | 0.0233 µM |
| CUGGACGUAGGAUAGGAUAUAUGAAUAAUUACAUGAGGAUCACCCAUGUCCAUUUAUAUGGGAACAUAGAAGGGUUGUGGUUAAG [Mat - Same state - Malcolm Mod - D145] | – | – | 0.241 µM | 0.16 µM |
| AUUCCAAAUAGUCAGGAUAUCAGGCGUAAGACAUGAGGAUCACCCAUGUACUUAGUAAAAGUAACUGAGAAGGGACAGGGUGUAA [JR_SS002_Sub407] | – | – | 0.0185 µM | 0.00864 µM |

| Sequence | apparent KD of MS2 coat protein (MS2 coat protein [1]; input ligand: FMN 200 uM) | apparent KD of MS2 coat protein (MS2 coat protein [1]; input ligand: none) | apparent KD of MS2 coat protein (MS2 coat protein [2]) | apparent KD of MS2 coat protein (MS2 coat protein [3]) |
| --- | --- | --- | --- | --- |
| AAAAGACAUGAGGAUCACCCAUGUAAAAACGUAGGAGGAUAUGUCGUGAAAAAAGACUUGGCAGAAGGCCUGUGUC [SS1 - 39] | – | – | 0.0505 µM | 0.03 µM |
| CGAAGACAUGAGGAUCACCCAUGUCGUCGUAACAGAGGAUAUGGGAGCGCCAAGGGCGCAUCAGAAGGCUGAAAAC [Beusle] | – | – | 0.0251 µM | 0.0178 µM |
| AAAAAAAAAGUCGAGGAUAUCCACAUGGCUACAUGAGGAUCACCCAUGUGAAGAAAAGCACAUGAGGAGAAGGCGACAAAAAAAAA [Tightrope] | – | – | 0.0245 µM | 0.0116 µM |
| UCCUUACAUGAGGAUCACCCAUGUCGCAGGAAUCAAGGAUAUGGGACCGCAAUGCGGAAACCAGAAGGUGACAAAA [Zaesor] | – | – | 0.322 µM | 0.158 µM |
| AGGAAACAUGAGGAUCACCCAUGUAAAAAUAACGCAGGAUAUGGAAACACGAAAGUGAAACCAGAAGGGUGAAAAG [77%, Mat - Mod of Eli, 14] | – | – | 0.0298 µM | 0.0189 µM |
| AAUAACUAUAGCAAGGAUAUCCGAAACAAGACAUGAGGAUCACCCAUGUAAUAAGACAAAAUAUAGGAGAAGGUGCAGGGUGAAA [JR_SS002_Sub010] | – | – | 0.116 µM | 0.0753 µM |
| AAGAAACAUGAGGAUCACCCAUGUAAAUUCAAGAGAGGAUAUCGUACAUGGAAGAUUCAACGAGAAGGCUCUAGAA [Pariah 3 (MS2 Riboswitches - Same State 1)] | – | – | 0.083 µM | 0.0193 µM |
| CGAAGACAUGAGGAUCACCCAUGUGGGAAUAUGGGAGGAUAUACAAAGACGAGAGUCAGAGUAGAAGGCCUAGGAC [salish99-ss1-108] | – | – | 0.0755 µM | 0.0265 µM |
| GAUAGACAUGAGGAUCACCCAUGUAGAAUUAUGGGAGGAUAUACAAAGACGAGAGUCAGAGUAGAAGGCCUAGGAU [salish99-ss1-157] | – | – | 0.0544 µM | 0.0236 µM |
| AGAAAUAAAAGAGAGGAUAUCCAAAAGAAAACAUGAGGAUCACCCAUGUAAAACAAAACAAAAUGGGAGAAGGCUCAAAAUAAGA [Topaz 15] | – | – | 0.0314 µM | 0.0198 µM |
| AACCAACAUGAGGAUCACCCAUGUCUACAGGAUUAAGGAUAUGGGCAGGGCUUCCCUGCACUAGAAGGUGAUCCAA [Enonenen] | – | – | 0.0523 µM | 0.409 µM |
| ACUAUACAUGAGGAUCACCCAUGUUAGGUGGGACUAGGAUAUCAAAAGCCAGAGUAAGAAUGAGAAGGAGUAGAAA [JR_SS001_Sub301] | – | – | 0.0348 µM | 0.0328 µM |
| AAAGACAUAGUUCAGGAUAUGGUAAUAGUCACAUGAGGAUCACCCAUGUGCAUUUAUAUGCGCGAUCAGAAGGGAGGUAGAUAAA [SameState2 Malc#17] | – | – | 0.0215 µM | 0.0249 µM |
| AAAAAACAUGAGGAUCACCCAUGUAAAAAUAUGGGAGGAUAUGCGAAAAGAAACAAAGAAGCAGAAGGCCUAAAAA [75%, Ex5 sub 1, 8] | – | – | 0.185 µM | 0.0256 µM |
| GAAAAACAUGAGGAUCACCCAUGUAGAAAUAUGGGAGGAUAUACAAAGACGAAAGUCGAAGUAGAAGGCCUAAAAG [Mat - Same State 1 - Eli mod - D23] | – | – | 0.0668 µM | 0.0255 µM |
| GAGAAGAAGAGAGAGGAUAUCCAAAGGAAAACAUGAGGAUCACCCAUGUAAAAGGUAGGAAAUUGGGAGAAGGCUCAAAAGAGGG [salish99-ss2-028(!)] | – | – | 0.044 µM | 0.0199 µM |
| GAUAAACAUGAGGAUCACCCAUGUAGAUAUAUGGGAGGAUAUACAAAGACGAUAGUCAUAGUAGAAGGCCUAAUAG [77%, Mat - Mod of Eli - With 5 more U's] | – | – | 0.0912 µM | 0.03 µM |
| AAAACACAUGAGGAUCACCCAUGUCAAAAAAACACAGGAUAUCCAAAAAAAAAAAAAAAAGGAGAAGGGUGAAAAA [high kcal] | – | – | 0.042 µM | 0.065 µM |
| GAAAUAAAAAGACAGGAUAUCCAAAAGAAAACAUGAGGAUCACCCAUGUAAAGAAAAUAAAAAUGGGAGAAGGGUCAAAUAAAAG [Mat - Same State 2 - JL mod - D54] | – | – | 0.0328 µM | 0.024 µM |
| CAUAGACAUGAGGAUCACCCAUGUAGAAUUAUGGGAGGAUAUACAAAGACGAGAGUCAGAGUAGAAGGCCUAGGAG [salish99-ss1-163] | – | – | 0.034 µM | 0.0244 µM |
